# Measurements: the supplement of paper PMC12042874
# ± gives the uncertainty stated by the source.
# Test: amyloid nucleation score (Sup35N fusion, yeast selection) (log enrichment); library NNK2; higher = more nucleation; inactive = no reads after selection
# Outline: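 Plasmid inserts were Illumina-sequenced at input and output from psi-negative yeast expressing Sup35N fused to peptides of 20 random codons. The yeast were induced with 100 μM copper sulfate for 24 hours and grown 7 days at 30°C on medium lacking adenine and uracil, and sequences with under 100 input reads were excluded. Nucleation score is the DiMSum log enrichment of output over input reads, centred on the mode score of non-aggregating sequences.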
row,Substance,amyloid nucleation score
1,RTAINESCQDEMG,5.44 ± 0.073
2,RTALKYPVSYSRFGSFADES,-0.73 ± 0.41
3,RTEGRGCRAAWSK,0.101 ± 0.76
4,RTLPFWWLNLFWFLNNMDTF,-1.8 ± 1.1
5,RTMWSIFHYSTVVSRVSTMA,1.23 ± 0.45
6,RTSCVYSHWQHNIERLLGRW,inactive
7,RTWCDGGCPV,0.653 ± 0.81
8,RTYVGRPENCKSWSYPMLMQ,4.805 ± 0.039
9,RVIHKFLYK,6.288 ± 0.06
10,RVISFIYWSVTGDSDCLLWC,4.24 ± 0.067
11,RVKRRMSFVVAVAQVMGLVG,0.475 ± 0.23
12,RVLLHSLRKYLIHDCDVYRA,-0.474 ± 0.55
13,RVLTGWVVA,0.215 ± 0.76
14,RVMMSRISYSLSCVSADKVR,0.288 ± 0.24
15,RVMSVCGSYVNRGEADVVSG,0.364 ± 0.18
16,RVNCYYSFRS,6.026 ± 0.038
17,RVRGWLSMSWGCGMGLPASS,7.03 ± 0.074
18,RVRIGQAGVWAPRPKELTLW,0.679 ± 0.81
19,RVSHREFYLRGTLVETLLDD,inactive
20,RVSLLMYGWRVGRTNVCGLC,1.41 ± 0.53
21,RVTFNFRGMYKLIIMGGVPP,6.49 ± 0.085
22,RVVFKHENLDMWCWMS,1.47 ± 0.11

row,Substance,amyloid nucleation score
1,RVVLCVNLSPTSFVWSRIKE,3.45 ± 0.15
2,RVVRLAFNPRPSDAWILYR,0.325 ± 0.34
3,RVYLFFYAYHHVICANSSYK,-1.11 ± 0.56
4,RWCGIGRLGVSNGIVPCWEM,0.647 ± 0.17
5,RWEDRPSVTRRSGVRNGFSG,inactive
6,RWIVGQRRKIESWWQMVPIY,0.81 ± 0.4
7,RWIVRDSFESWFMVLD,-0.267 ± 0.35
8,RYENPLYVCDWGFGASLFRP,0.237 ± 0.22
9,RYIGMLRFVVCDYGLMIFWS,-0.394 ± 1.1
10,RYIVILSFVRGSWLYFLTRT,-0.543 ± 0.5
11,RYKSFMVQQSIDNRVLVGVC,0.241 ± 0.8
12,RYLSLVFVYIVGVLYSSCDV,0.383 ± 0.14
13,RYLVVKEQDFPDEYAPY,-0.271 ± 0.55
14,RYMRFYRLAGPAVLRFHLR,inactive
15,RYNDAFSVCRMDEITAWIWC,2.67 ± 0.085
16,RYWWRVRIYFVCCVSSLDWV,7.09 ± 0.077
17,SAFYSDAL,1.08 ± 0.54
18,SALHCISLDVHRIFGSKNAR,1.36 ± 0.46
19,SALIF,0.115 ± 1
20,SALSGRYAKTLRNGHGLYQE,inactive
21,SARAICMAVLESSESDHNGV,-0.299 ± 0.36
22,SASDTRGCCQHIPVSLGILT,0.119 ± 0.74

row,Substance,amyloid nucleation score
1,SATFWLFVGVENVADMSKVG,0.261 ± 0.4
2,SATRDYHRLWCVVRLLLNAA,0.342 ± 0.46
3,SAVHENVIGVFFGVLVYSNA,2.42 ± 0.1
4,SCAGSWNNKGGSKLQWDFLV,-1.82 ± 0.75
5,SCCRGEF,-0.235 ± 0.61
6,SCCYVLKRDFKLMNNVPSGR,-0.033 ± 0.2
7,SCDIRRSLVSRAQICVCIVM,7.534 ± 0.071
8,SCFLSMYVISV,inactive
9,SCFRC,9.804 ± 0.047
10,SCGRMMTVVMIWGNWRSWSS,-0.439 ± 0.76
11,SCLEMYSHRVPWSFACDDYN,inactive
12,SCLTNGY,-0.154 ± 0.38
13,SCPGLGNRIPDTVKYT,0.969 ± 0.22
14,SCPMTSYGE,0.319 ± 0.8
15,SCRVRFNRSCAPGNSQIGMS,8.674 ± 0.058
16,SCSMLVRDDIIIEPDCLLGV,0.45 ± 0.74
17,SCVLRP,0.064 ± 0.33
18,SCYFLFGHDG,-0.517 ± 0.49
19,SCYIDRTRYWDGYFLLCSMD,0.949 ± 0.74
20,SCYNFVWYTCGLYMWLNCLL,-0.793 ± 0.32
21,SDGEKFG,-0.256 ± 1.1
22,SDHFKWV,-1.05 ± 1

row,Substance,amyloid nucleation score
1,SDLLFVLASLSCLQWNKDIA,-0.457 ± 0.25
2,SDLTIVVSMLGFIPCSCHAF,6.328 ± 0.05
3,SDRFMIVVDWVILVVLCMT,-0.611 ± 0.39
4,SDRMLCEGNYCWCVSENVLL,6.12 ± 0.061
5,SDSFKDPTWREDNRGW,2.54 ± 0.085
6,SDSKG,0.113 ± 1.1
7,SDTVYLIFFSLAYNYVKRVT,-1.74 ± 0.41
8,SDWFW,-0.664 ± 0.5
9,SELKMWYTDMVSTSKLDCIL,-0.125 ± 0.46
10,SELLRTLGALSFYMYSFIKH,-1.98 ± 0.54
11,SERRGIIGSGLRDGRVLFTT,inactive
12,SESGR,1.74 ± 0.21
13,SESMFLVKDSLTWTDVFLIG,-1.07 ± 1.1
14,SFCDLWLLAQDHAKLLGFIA,-0.499 ± 0.55
15,SFDFHNGGDIEYLV,inactive
16,SFDSVELARGTASCRVAYFV,0.731 ± 0.35
17,SFGENLVYCMRSIVTSPYRL,-0.364 ± 0.24
18,SFGGARVSLLCCFPSTSIAS,9.374 ± 0.036
19,SFGTFSCLYSVYNI,2.84 ± 0.086
20,SFILD,inactive
